Results published in US6602700B1, “Phenolic acid esterases, coding sequences and methods” (University of Georgia Research Foundation, Inc., priority 1998, dated 2003).

B1: FAE: C. thermocellum XynZ amino acids 20-286 expressed in E. coli; feruloyl esterase domain without linker or CBD (protein, listed as Clostridium thermocellum)
chain: LVTISSTSAASLPTMPPSGYDQVRNGVPRGQVVNISYFSTATNSTRPARVYLPPGYSKDKKYSVLYLLHGIGGSENDWFEGGGRANVIADNLIAEGKIKPLIIVTPNTNAAGPGIADGYENFTKDLLNSLIPYIESNYSVYTDREHRAIAGLSMGGGQSFNIGLTNLDKFAYIGPISAAPNTYPNERLFPDGGKAAREKLKLLFIACGTNDSLIGFGQRVHEYCVANNINHVYWLIQGGGHDFNVWKPGLWNFLQMADEAGLTRDGN
B2: FAE287: XynZ amino acids 20-307; lacks the CBD but contains the proline rich linker (protein, listed as Clostridium thermocellum)
chain: LVTISSTSAASLPTMPPSGYDQVRNGVPRGQVVNISYFSTATNSTRPARVYLPPGYSKDKKYSVLYLLHGIGGSENDWFEGGGRANVIADNLIAEGKIKPLIIVTPNTNAAGPGIADGYENFTKDLLNSLIPYIESNYSVYTDREHRAIAGLSMGGGQSFNIGLTNLDKFAYIGPISAAPNTYPNERLFPDGGKAAREKLKLLFIACGTNDSLIGFGQRVHEYCVANNINHVYWLIQGGGHDFNVWKPGLWNFLQMADEAGLTRDGNTPVPTPSPKPANTRIEAEDYD
B3: FAE227: XynZ amino acids 20-247; expressed but inactive truncation (protein, listed as Clostridium thermocellum)
chain: LVTISSTSAASLPTMPPSGYDQVRNGVPRGQVVNISYFSTATNSTRPARVYLPPGYSKDKKYSVLYLLHGIGGSENDWFEGGGRANVIADNLIAEGKIKPLIIVTPNTNAAGPGIADGYENFTKDLLNSLIPYIESNYSVYTDREHRAIAGLSMGGGQSFNIGLTNLDKFAYIGPISAAPNTYPNERLFPDGGKAAREKLKLLFIACGTNDSLIGFGQRVHEYCVANN

Tests used:
[1] = Storage stability of purified XynZ-derived FAE at 4° C.; format: physicochemical; conditions: 4° C. in elution buffer (50 mM Tris pH 7.5, 5% glycerol)
Protocol: Alternatively, the 100,000×g supernatant after the heat treatment was concentrated to a volume of 2 ml with a Centricon 10 concentrator (Amicon, Millipore, Bedford, Mass.) and then applied to a TSK3000SW column (Tosohaas) which was run with 50 mM Tris pH 7.5 and 5% glycerol as solvent.

[2] = Routine feruloyl esterase assay of purified recombinant XynZ polypeptides (purification tables); format: biochemical; conditions: purified preparation after heat treatment and TSK 3000SW gel filtration
Protocol: (§1) Unless otherwise noted, all C. thermocellum enzyme assays were performed at 60° C. in 50 mM Na-citrate buffer, pH 6.0. One unit of enzyme activity was defined as the amount of enzyme that released 1 μmol of product min-1, and specific activity is given in units per milligram of protein. Feruloyl esterase activity was measured using a modified version of the assay described by Borneman et al. [Borneman etal. (1990) Anal. Biochem. 190:129-133]. The appropriately diluted protein sample (25 l) was added to 400 μl of buffer plus 8 mM of substrate. Samples were incubated at 60° C. for 5 min. and the reaction was stopped by adding 25 μl of 20% formic acid. Release of ferulic acid was measured via HPLC using a mobile phase of 10 mM Na-formate pH 3 and 30% (vol/vol) methanol. For routine assays, FAXX and FAX3 purified from wheat bran were used as substrates [Borneman et al. (1990) supra]. Ethyl-ferulate and ethyl-p-coumarate esters were a gift from D. E. Akin (USDA, Athens, Ga.). The hydrolysis of these (10 mM) were determined similarly to that of FAXX, but the HPLC analyses were performed with 50% methanol. HPLC runs were with a Hewlett Packard 1100 Series instrument equipped with an autosampler and diode array detector. Ferulic acid and p-coumaric acid were used as standards. […]

[3] = Cellulose binding of XynZ constructs; conditions: purified from recombinant E. coli
[4] = C. thermocellum enzyme stability experiments (heat incubation, residual activity); format: physicochemical
Protocol: Purified enzyme at a concentration of 13 μg/nMl was placed in a water bath at the appropriate temperature and incubated at intervals of one hour. Enzyme aliquots (25 μl) were removed and assays were performed in triplicate using FAX3 as a substrate as described above. FAE/CBD was tested at temperatures of 500, 600, and 70° C. while FAE was tested at 70°, 80° and 90° C.

[5] = Feruloyl esterase activity of C. thermocellum enzymes, HPLC assay, FAX3 as substrate; format: biochemical; conditions: pH 6.0, 60° C.
Protocol: as §1

[6] = Feruloyl esterase activity of C. thermocellum enzymes, HPLC assay, FAXX as substrate; format: biochemical; conditions: E. coli cell free extracts
Protocol: Unless otherwise noted, all C. thermocellum enzyme assays were performed at 60° C. in 50 mM Na-citrate buffer, pH 6.0. One unit of enzyme activity was defined as the amount of enzyme that released 1 μmol of product min-1, and specific activity is given in units per milligram of protein. Feruloyl esterase activity was measured using a modified version of the assay described by Borneman et al. [Borneman etal. (1990) Anal. Biochem. 190:129-133]. The appropriately diluted protein sample (25 l) was added to 400 μl of buffer plus 8 mM of substrate. Samples were incubated at 60° C. for 5 min. and the reaction was stopped by adding 25 μl of 20% formic acid. Release of ferulic acid was measured via HPLC using a mobile phase of 10 mM Na-formate pH 3 and 30% (vol/vol) methanol. For routine assays, FAXX and FAX3 purified from wheat bran were used as substrates [Borneman et al. (1990) supra]. Ethyl-ferulate and ethyl-p-coumarate esters were a gift from D. E. Akin (USDA, Athens, Ga.). The hydrolysis of these (10 mM) were determined similarly to that of FAXX, but the HPLC analyses were performed with 50% methanol. HPLC runs were with a Hewlett Packard 1100 Series instrument equipped with an autosampler and diode array detector. Ferulic acid and p-coumaric acid were used as standards. To determine the amount of feruloyl and p-coumaroyl groups released from plant cell walls, wheat bran and Coastal Bermuda grass were ground in a Wiley mill to pass through a 250 μm screen. Plant samples of ten milligram were incubated for one hour in 400 μl of 50 mM Na-citrate buffer pH, 6.0 plus 25 μl of enzyme. After the addition of 25 μl of 20% formic acid to stop the reaction, the samples were centrifuged at 16,000×g in a microfuge and then assayed for FA and pCA by HPLC.

Row | Molecule | Storage stability [1] | Specific Activity [2] [U/mg] | Removal of feruloyl esterase activity by Avicel and acid swollen cellulose adsorption (cellulose binding) [3] | Relative activity after heat incubation ([4]; 80° C., after three hours of incubation) | Relative activity after heat incubation ([4]; 90° C., after 1 hour of incubation) | Thermal stability ([4]; temperatures up to 70° C. for 6 hours) | Km [5] [mM] | Vmax [5] | Feruloyl esterase activity (hydrolysis of FAXX) of construct expressed in E. coli [6] | Feruloyl esterase activity (hydrolysis of FAXX) of construct expressed in E. coli ([6]; listed as XynZ UD)
1 | B1 | stable for at least a month | 26.6 | not | around 50% | most of the relative activity was destroyed | stable | 10.5 | 28.2 μmol ferulic acid released min-1 mg-1 | exhibited feruloyl esterase activity | high levels of feruloyl esterase activity
2 | B2 |  |  |  |  |  |  |  |  | exhibited feruloyl esterase activity | 
3 | B3 |  |  |  |  |  |  |  |  | inactive | 
